{"source": "paper PMC13168245", "about": "(Nature Communications, 2026)", "key": {"AMC008-b12 complex": {"target": "T1, AMC008-b12 complex (HIV-1 clade B, isolate AMC008 …, stabilised)", "T1 construct": "source: formed from purified AMC008 Env (Expi293F) and excess b12 Fab (1:9 molar ratio in PBS, on ice 30 minutes); copies: 3 + 3 + 3 + 3", "assay": "mass photometry; AMC008 with two excess Fabs (b12 and 3BC315, or VRC01 and 3BC315), 1:9 molar ratio in PBS, on ice 30 minutes, diluted in PBS; mass increase divided by 55 kDa per Fab", "conditions": "both partners purified"}, "AMC008-VRC01 complex": {"target": "T2, AMC008-VRC01 complex (HIV-1 clade B, isolate AMC008 …, stabilised)", "T2 construct": "source: formed from purified AMC008 Env (Expi293F) and excess VRC01 Fab (1:9 molar ratio in PBS, on ice 30 minutes); copies: 3 + 3 + 3 + 3", "assay": "mass photometry; AMC008 with two excess Fabs (b12 and 3BC315, or VRC01 and 3BC315), 1:9 molar ratio in PBS, on ice 30 minutes, diluted in PBS; mass increase divided by 55 kDa per Fab", "conditions": "both partners purified"}}}
{"binder": "antibody 3BC315 Fab (Fab, V domains shown, source: Expi293F, heavy and light chain co-expressed; IgG purified on Protein A, digested with papain, Fab in the Protein A flow-through) VH: QVQLVQSGAEMKDPGASVKVSCRASGYKFTDYYMHWVRQAPGQGLEWVGWVNTNGGFTKYGAKFQGRVTVTRDTSTNTVFLELSRLTFGDTAMYFCARPMRPVSHGIDYSGLFVFQFWGRGTMVTVSS VL: QSALTQPASVSASPGQSITISCSGTRSDVGGYDFVSWYQQHPGKVPKLIIYEVTKRPSGIPQRFSGSKSGNTASLTISGLQADDEADYYCCSYANYDKLILGGGTKLTVL", "values": [{"measurement": "stoichiometry N", "setting": "AMC008-b12 complex", "result": "~3", "unit": "Fabs"}, {"measurement": "stoichiometry N", "setting": "AMC008-VRC01 complex", "result": "~1", "unit": "Fab"}]}
